US20260092115A1 (Chugai, published 2026)
Changes are numbered by the printed parent chain. Blank lines part the entries; values can stand above or below the binder they belong to.

Assays:
[1] = target: T1, human FcγRIIb extracellular domain, His-tagged (human, UniProt P31994 43-217); assay: binding amount of this antibody divided by that of 04H1637-G1m/04L1610-lam1; SPR pH 7.4
T1 construct: extracellular domain; also called hFcγR IIb
T1 sequence (looked up): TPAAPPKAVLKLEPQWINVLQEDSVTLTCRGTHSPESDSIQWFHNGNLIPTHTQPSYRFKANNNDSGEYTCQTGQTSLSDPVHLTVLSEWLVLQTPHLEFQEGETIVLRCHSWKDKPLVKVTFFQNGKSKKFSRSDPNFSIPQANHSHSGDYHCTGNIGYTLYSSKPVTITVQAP
Procedure: (§1) The interaction between the generated antibodies and human FcγRs was analyzed by the following method using Biacore T200. 50 mM Na-Phosphate, 150 mM NaCl, 0.05% Tween20 (pH 7.4) was used as the running buffer, and the assay was performed at 25° C. For the sensor chips, Series S SA (GE Healthcare) chips onto which CaptureSelect Human Fab-lambda Kinetics Biotin Conjugate (Thermo Fisher Scientific) was immobilized were used. The antibodies of interest were captured onto these chips and each FcγR diluted in the running buffer was allowed to interact with them. Chips were regenerated with 10 mM Glycine-HCl (pH 1.5) and 25 mM NaOH, and assay was performed by repeatedly capturing antibodies. The dissociation constants KD (mol/L) for FcγRs of each antibody were calculated using Biacore T200 Evaluation Software 2.0, using the 1:1 Langmuir binding model for FcγRIa and FcγRIIIa and the steady state affinity model for FcγRIIa. For FcγRIIb, the binding amount of FcγRIIb per unit amount of antibody was calculated by correcting the binding amount of FcγRIIb obtained from the sensorgram obtained by the measurement with the amount of antibody captured onto the chip surface.
(§2) “Relative value to KD between G1m and hFcRn” and “Relative value to KD between G1m and hFcγRs” are values obtained by dividing the KD value of 04H1637-G1m/04L1610-lam1 for hFcRn and for each FcγR by the KD value of each variant, respectively. “Relative binding amount” indicates the value obtained by dividing the binding amount of each variant to FcγRIIb by the binding amount of 04H1637-G1m/04L1610-lam1. […] It was shown that all of the generated heterodimerized antibodies had enhanced binding to FcγRIIa and FcγRIIIa as compared with 04H1637-G1m/04L1610-lam1 which has the constant region of native human IgG1.

[2] = target: T1, human FcγRIIb extracellular domain, …; assay: SPR Biacore T200, 25C, pH 7.4; FcγRIIb at 1000 nM, corrected by captured antibody
Procedure: as §1

[3] = target: T2, human FcγRIIIa, allotype F158, extracellular domain, His-tagged (human, UniProt P08637 17-208); assay: KD of 04H1637-G1m/04L1610-lam1 divided by KD of this antibody; SPR pH 7.4
T2 construct: extracellular domain; also called hFcγR IIIa F
T2 sequence (P08637 17-208): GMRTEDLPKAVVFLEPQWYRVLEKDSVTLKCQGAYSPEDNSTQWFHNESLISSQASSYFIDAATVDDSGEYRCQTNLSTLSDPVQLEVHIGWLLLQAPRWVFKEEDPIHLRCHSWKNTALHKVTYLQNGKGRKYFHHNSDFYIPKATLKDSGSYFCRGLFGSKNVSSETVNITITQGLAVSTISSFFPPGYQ
Procedure: as §1, §2

[4] = target: T3, human FcγRIa extracellular domain, His-tagged (human, UniProt P12314 16-292); assay: as above
T3 construct: also called hFcγR Ia
T3 sequence (P12314 16-292): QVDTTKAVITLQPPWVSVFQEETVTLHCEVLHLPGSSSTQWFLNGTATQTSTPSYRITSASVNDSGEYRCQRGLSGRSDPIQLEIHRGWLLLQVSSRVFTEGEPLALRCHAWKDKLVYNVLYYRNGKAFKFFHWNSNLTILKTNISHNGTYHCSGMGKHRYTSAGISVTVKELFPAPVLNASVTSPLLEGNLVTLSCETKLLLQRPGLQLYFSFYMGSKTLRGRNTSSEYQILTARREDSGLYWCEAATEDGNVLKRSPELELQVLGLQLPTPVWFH
Procedure: as §1, §2

[5] = target: T4, human FcγRIIa, type R, extracellular domain, His-tagged (human, UniProt P12318 34-217); assay: as above
T4 construct: extracellular domain; also called hFcγR IIa R
T4 sequence (looked up): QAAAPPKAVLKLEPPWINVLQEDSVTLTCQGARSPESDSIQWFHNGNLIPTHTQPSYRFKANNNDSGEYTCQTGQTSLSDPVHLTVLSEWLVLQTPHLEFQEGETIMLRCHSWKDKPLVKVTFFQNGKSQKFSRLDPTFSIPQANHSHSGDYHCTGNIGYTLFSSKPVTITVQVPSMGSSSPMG
Procedure: as §1, §2

[6] = target: T5, human FcγRIIIa, allotype V158, extracellular domain, His-tagged (human, UniProt P08637 17-208); assay: as above
T5 construct: extracellular domain; also called hFcγR IIIa V
T5 sequence (P08637 17-208 F176V): as the sequence (P08637 17-208) above, with F160V counted along it
Procedure: as §1, §2

[7] = target: T6, human FcγRIIa, type H, extracellular domain, His-tagged (human, UniProt P12318 34-217); assay: as above
T6 construct: extracellular domain; also called hFcγR IIa H
T6 sequence (looked up): T4 sequence (looked up) with R134H
Procedure: as §1, §2

Relative binding amount [1]: 1.6 ratio | Binding amount [2]: 0.013 RU per RU of captured antibody | Relative value to KD between G1m and hFcγRs [3]: 79.5 ratio | Relative value to KD between G1m and hFcγRs [4]: 0.3 ratio | Relative value to KD between G1m and hFcγRs [5]: 9.2 ratio | Relative value to KD between G1m and hFcγRs [6]: 45.8 ratio | Relative value to KD between G1m and hFcγRs [7]: 20.9 ratio
B1: 04H1637-Kn462/04L1610-lam1//04H1637-H1441/04L1610-lam1 (antibody, human IgG1, lambda)
heavy 1: QVQLVESGGGLVKPGGSLRLSCAASGFTFSSKTMNWVRQAPGKGLEWVSSISTQSHYIYYAESVRGRFTISRDNAKNSLYLQMNSLRAEDTAVYYCARYGKREDMLWVFDYWGQGTLVTVSSASTKGPSVFPLAPSSKSTSGGTAALGCLVKDYFPEPVTVSWNSGALTSGVHTFPAVLQSSGLYSLSSVVTVPSSSLGTQTYICNVNHKPSNTKVDKKVEPKSCDKTHTCPPCPAPEFQWGPMVFLFPPKPKDVLMISRTPEVTCVVVDVSDEEPEVKFNWYVDGVEVHNAKTKPREEQYNATYRVVSVLPVLHQDWLNGKEYKCKVSNDALPAPIEKTISKAKGQPREPQVCTLPPSRDELTKNQVSLWCLVKGFYPSDIAVEWESNGQPENNYKTTPPVLDSDGSFFLYSKLTVDKSRWQQGNVFSCSVMHEALHNHYTQKSLSLSP
heavy 2: QVQLVESGGGLVKPGGSLRLSCAASGFTFSSKTMNWVRQAPGKGLEWVSSISTQSHYIYYAESVRGRFTISRDNAKNSLYLQMNSLRAEDTAVYYCARYGKREDMLWVFDYWGQGTLVTVSSASTKGPSVFPLAPSSKSTSGGTAALGCLVKDYFPEPVTVSWNSGALTSGVHTFPAVLQSSGLYSLSSVVTVPSSSLGTQTYICNVNHKPSNTKVDKKVEPKSCDKTHTCPPCPAPELLAGPSVFLFPPKPKDVLMISRTPEVTCVVVDVSHEEPEVKFNWYVDGVEVHNAKTKPREEQYNATYRVVSVLPVLHQDWLNGKEYKCKVSNDALPAPIEETISKAKGQPREPQVYTLPPSRCELTKNQVSLSCAVKGFYPSDIAVEWESNGQPENNYKTTPPVLDSDGSFFLVSKLTVDKSRWQQGNVFSCSVMHEALHNHYTQKSLSLSP
light: QSALTQPPSASGSPGQSVTISCEGPSTGVGDYNWVHWYQQHPGKAPKLMIYFTSKKPSGVPDRFSGSKSGNTASLTVSGLQAEDEADYYCQTYAAPLGPMFGGGTKLTVLGQPKAAPSVTLFPPSSEELQANKATLVCLISDFYPGAVTVAWKADSSPVKAGVETTTPSKQSNNKYAASSYLSLTPEQWKSHRSYSCQVTHEGSTVEKTVAPTECS
notes: Heterodimerized IgG1 Fc variant; also called 04H1637-Kn462/04L1610-lam1//04H1637-Hl441/04L1610-lam1

Relative binding amount [1]: 3.1 ratio | Binding amount [2]: 0.025 RU per RU of captured antibody | Relative value to KD between G1m and hFcγRs [3]: 616 ratio | Relative value to KD between G1m and hFcγRs [4]: 1.2 ratio | Relative value to KD between G1m and hFcγRs [5]: 10.7 ratio | Relative value to KD between G1m and hFcγRs [6]: 226 ratio | Relative value to KD between G1m and hFcγRs [7]: 11.1 ratio
B2: 04H1637-Kn461/04L1610-lam1//04H1637-H1443/04L1610-lam1 (antibody, human IgG1, lambda)
heavy 1: B1 heavy 1 with I337E
heavy 2: B1 heavy 2 with I337E
light: B1 light
notes: Heterodimerized IgG1 Fc variant; also called 04H1637-Kn461/04L1610-lam1//04H1637-Hl443/04L1610-lam1

Relative binding amount [1]: 0.9 ratio | Binding amount [2]: 0.007 RU per RU of captured antibody | Relative value to KD between G1m and hFcγRs [3]: 406 ratio | Relative value to KD between G1m and hFcγRs [4]: 1.2 ratio | Relative value to KD between G1m and hFcγRs [5]: 1.6 ratio | Relative value to KD between G1m and hFcγRs [6]: 126 ratio | Relative value to KD between G1m and hFcγRs [7]: 3.6 ratio
B3: 04H1637-Kn125/04L1610-lam1//04H1637-H1076/04L1610-lam1 (antibody, human IgG1, lambda)
heavy 1: B1 heavy 1 with F239Y, V255T, P312T, D331K
heavy 2: B1 heavy 2 with A241G, V255T, A303S, P312T, A335M
light: B1 light
notes: Heterodimerized IgG1 with the Fc variant of WO 2013/002362; also called 04H1637-Kn125/04L1610-lam1//04H1637-Hl076/04L1610-lam1

Relative binding amount [1]: 3.7 ratio | Binding amount [2]: 0.03 RU per RU of captured antibody | Relative value to KD between G1m and hFcγRs [3]: 382 ratio | Relative value to KD between G1m and hFcγRs [4]: 0.6 ratio | Relative value to KD between G1m and hFcγRs [5]: 18.7 ratio | Relative value to KD between G1m and hFcγRs [6]: 131 ratio | Relative value to KD between G1m and hFcγRs [7]: 37.5 ratio
B4: 04H1637-Kn462/04L1610-lam1//04H1637-H1445/04L1610-lam1 (antibody, human IgG1, lambda)
heavy 1: B1 heavy 1
heavy 2: B1 heavy 2 with A335K, I337D
light: B1 light
notes: Heterodimerized IgG1 Fc variant; also called 04H1637-Kn462/04L1610-lam1//04H1637-Hl445/04L1610-lam1
